Assay: soluble on expression in E. coli; label from the status in PepcDB or PDB records

Sequence | soluble on expression in E. coli
MGSDKIHHHHHHMSNYRNPHQLIITADDYGMCPEVNRAIEECLAAGALRATCVMTNMPAYTDADRLSKDFPSASIGIHWTLTAGTPVAPLSEVPDLVAPNGQFWPAAEFRQRWLSRRISPTQVVIELQAQHARFVELIGQPAFWNTHQNVHVLPRLFPLVVDLAHRLGIPAMRSHRRITAPRHSSTLRYYLTHPIYWLKGQIIARWAAAAEKRGLRMPAGVVSTPGFGPGKVAIDQIIARIPWPRRLPAELVIHPATRVIPGLFGGLTESRLREFEVFRDPTLVERLAAMGVQPVGFEVL | not soluble
MAHHHHHHMFISEDLDPEALKNEANIKWKEVIGKGNMEEANIIWRQALKECIKYSMRGIPTNKNRDMQISLRLNLSLYHYKKKEYSDCINQCNIIIDNLLNLEEMLQYYNMGDEEENKKESNNNDGDKGDHISDDKGDHMSDDKGDHKDDDKGDHMSDDKGDHKDDDKGDHMSDDKGDHKDDDKGDHMSDDKDKSNVNLREKKYIIKKDILIKIFLRRASSFLCLQEFNKCNEDLGIIKKLENNDAEAATLEKRMIIEKKDYERKQKELYKKMCNSK | not soluble
YIGLVNSFAQKKKLSVNYEQCEPNSELPQRFICKCKIGQTMYGTGSGVTKQEAKQLAAKEAYQKLLKSPPKTAGT | soluble
MGSDKIHHHHHHMATTVDTGDRRDNGKSVRRKLPRGAHAEIGNVDRDPVELLKISSEGRVRRLVPLRYGRMIESPFAFYRGSAIVQAHDLAGTPNSGLHIQICGDCHLANFGGFATPERALLFDLNDFDETSRGPWEWDLKRLAASFVVAARHLRHKQGVADDLVYQLVRSYQARMQGYGEMGILDTWYDHITFERLLGEETSPNIQRRIRRGMERAADRTSEALLPKLAERVGDKWTILDAPPAVFHVRGAHTLFDADDDWMTAKDIQAAAEKVYKEYLGTLAPDRQRLLSHFTLHDRAFKVVGVGSVGTRCMIQLMIDSHGKPMFLQIKEATRSVVARYFKGPAVSHDGRRVVEGQRLMQAASDLFLGWTKGPFGRDFYVRQLRDMKLSPQIELMDVEALGRYGALCGWVLARAHAKAGGLAAEISGYLGTSDRMAEVMVGYSNSYADQVEKDYERFVAACRSGRLEARTDADMAADFRV | not soluble
MHPMNILLKLPLKIPLMIIEKAREILEKHPLCNHCLGRMFAKLGKGTNEERGKAIRLILSMELNREVKEPENCELCQGIFRRMNELLDLVRNAVEDYEFQTFQIGSRFPKDILEKEKKIWEEFGITTGEPINREFNRELGKLFAKVTGKIPNRERPDIVIIVEPFSSKVELQVNPIYVAGRYRKLVRGIPQTPAPGFEESIATIICRVFKKNFRGKCIFKGAGREDVDVRTLGRGRPFVVEIKKPRKRKVDLKLIEEEINSSGKVEVLELKFITPEESEKILTARHKKIYEALVYVKDGVSAEEVEKVVKSLKGSEIKQRTPRRVLNSRADIVRVRRVYNVSGEYIDEHHFKLKLVTDGGLYIKELISGDKGRTKPSVSEILGKEAWCEILDVLDVLDGDENVEGDS | soluble
MGSDKIHHHHHHMSLDNHYDVDAALDKALKDDFLRKATRRATDRLRNNKLAITEELGNWEEWRQVGERIRNHVVENLDYYLDMLIENVEKNGGHVHLAKTPEDGVRIVQEIFQKHGFKSVIKSKSMITEEIHLNPVLEKDGIEVVETDLAEYIIQIADEPPSHIIVPAMHKTREQIAKLFEPIAGHPLESDTPTLTKFAREQLREKFLTSKIGITGCNFAVADTGTITMVTNEGNGRLTSTMPEVQITMMGMERIVPSYKELSVLLNLLARSATGQRLSVYTTMITPPKREGDIDGPKEWHLVILDHNRSEILGDEDFRSSLRCIRCGACFNVCPVYRQVGGHAYGSVYSGPIGVVITPLLEQNYEKWGHLPYYSSLCAACSEACPVRIPLQDLIVKHRDRKVLKGYTSGVEKKIFKYYGYYFSHPKTLSKFVRLGSKFQFILMRNGRIASGPPPLSNWTNSKTLPPVAKQMFRDQWPELEKKLKTMQRGDQ | not soluble
MGSDKIHHHHHHMSIEAKFKKLGTDNAPGQEVRQSAAGLEALIRGAPIEGRPVDFSHGDVDAHEPTPGAFDLFSAGVQSGGVQAYTEYRGDLGIRDLLAPRLAAFTGAPVDARDGLIITPGTQGALFLAVAATVARGDKVAIVQPDYFANRKLVEFFEGEMVPVQLDYVSADETRAGLDLTGLEEAFKAGARVFLFSNPNNPAGVVYSAEEIGQIAALAARYGATVIADQLYSRLRYAGASYTHLRAEAAVDAENVVTIMGPSKTESLSGYRLGVAFGSRAIIARMEKLQAIVSLRAAGYSQAVLRGWFDEAPGWMEDRIARHQAIRDELLHVLRGCEGVFARTPQAGSYLFPRLPKLAVAPAEFVKILRLQAGVVVTPGTEFSPHTADSVRLNFSQDHEAAVAAARRIVTLVERYRA | not soluble
MAALAGDEAWRCRGCGTYVPLSQRLYRTANEAWHGSCFRCSECQESLTNWYYEKDGKLYCHKDYWAKFGEFCHGCSLLMTGPAMVAGEFKYHPECFACMSCKVIIEDGDAYALVQHATLYCGKCHNEVVLAPMFERLSTESVQDQLPYSVTLISMPATTECRRGFSVTVESASSNYATTVQVKEVNRMHISPNNRNAIHPGDRILEINGTPVRTLRVEEVEDAIKQTSQTLQLLIEHDPVPQRLDQLRLDARLPPHMQSTGHTLMLSTLDTKENQEGTLRRRSLRRSNSISKSPGPSSPKEPLLLSRDISRSESLRCSSSYSQQIFRPCDLIHGEVLGKGFFGQAIKVTHKATGKVMVMKELIRCDEETQKTFLTEVKVMRSLDHPNVLKFIGVLYKDKKLNLLTEYIEGGTLKDFLRSVDPFPWQQKVRFAKGISSGMAYLHSMCIIHRDLNSHNCLIKLDKTVVVADFGLSRLIVEERKRPPVEKATTKKRTLRKSDRKKRYTVVGNPYWMAPEMLNGKSYDETVDVFSFGIVLCEIIGQVYADPDCLPRTLDFGLNVKLFWEKFVPTDCPPAFFPLAAICCKLEPESRPAFSKLEDSFEALSLFLGELAIPLPAELEDLDHTVSMEYGLTRDSPP | soluble
MGSDKIHHHHHHMSFVSYAQNFEDVMLWRALRHIKNGYYIDVGAFSADEDSVTRAFYDQGWSGINIEPNPKYHEELVARRDRDINLRVAVSDRAEDRALYVIDDTGLTTLEPDIAEMHREKGFSKIDVVVPALTLEEIWTTHVPQDQDVHFLKIDVEGHELPVIKGLDWDRHRPWIVVVESTLPATQQLSETGIVEALAKADYEAVYWDGLNRYYVAKERAELTKYFDDPPNVFDGFRRSSEVEFEQRALQAEAELYLEREHVVRISKENWDHVHHALEVKFSALQEAMAAEAQAARRDVTQELVELRMQLSKQGMTSSFWTRFFFRPTGKPKKALRRLLFHTNGKPRGIFRNRVLKSNGQPRPAFLRWMASAEYQQLRRAVKVAASDESQHVLESGASTLSQNEGVFVGVLQSARTEKSH | not soluble
MATTLPVQRHPRSLFPEFSELFAAFPSFAGLRPTFDTRLMRLEDEMKEGRYEVRAELPGVDPDKDVDIMVRDGQLTIKAERTEQKDFDGRSEFAYGSFVRTVSLPVGADEDDIKATYDKGILTVSVAVSEGKPTEKHIQIRSTN | soluble
MGSDKIHHHHHHMTWLPLNPIPLKDRVSMIFLQYGQIDVIDGAFVLIDKTGIRTHIPVGSVACIMLEPGTRVSHAAVRLAAQVGTLLVWVGEAGVRVYASGQPGGARSDKLLYQAKLALDEDLRLKVVRKMFELRFGEPAPARRSVEQLRGIEGSRVRATYALLAKQYGVTWNGRRYDPKDWEKGDTINQCISAATSCLYGVTEAAILAAGYAPAIGFVHTGKPLSFVYDIADIIKFDTVVPKAFEIARRNPGEPDREVRLACRDIFRSSKTLAKLIPLIEDVLAAGEIQPPAPPEDAQPVAIPLPVSLGDAGHRSS | not soluble
GHMAIQRRIRRVKTVQMTTNSPIHRSGSVLEPGNWQEYDPFLLLMEDIFERGTFDVHPHRGIETVTYVISGELEHFDSKAGHSTLGPGDVQWMTAGRGVVHKEDPASGSTVHSLQLWVNLPSAYKMTEPRYQNLRSKDMPVRKEEGATIRVFSGSSKGVKAPTKNIVPVTMVEMIVEPGTTVVQDLPGHYNGFLYILEGSGVFGADNIEGKAGQALFFSRHNRGEETELNVTAREKLRLLLYAGEPVNEPVVAYGPFVMNTPEQIREAIRDYQEGRFGR | soluble
MPNNEASEEAKWYVVHTYSGYENKVKANLEKIVENRNLQDYILDIVVPMEEQIEIKDGKKKASLKKVFPGYVLVKMIMNDESWYVVRNTRGVTGFVGPGSKAVPLTDEEIRAMGVEEFAPVLDYEVGDNVRVVSGPLENFIGIVEEINLEKKKVRVSVSMFGRETPVELELHQIQKI | soluble
MNFLSEQLLAHLNKEQQEAVRTTEGPLLIMAGAGSGKTRVLTHRIAYLMAEKHVAPWNILAITFTNKAAREMRERVQSLLGGAAEDVWISTFHSMCVRILRRDIDRIGINRNFSILDPTDQLSVMKTILKEKNIDPKKFEPRTILGTISAAKNELLPPEQFAKRASTYYEKVVSDVYQEYQQRLLRNHSLDFDDLIMTTIQLFDRVPDVLHYYQYKFQYIHIDEYQDTNRAQYTLVKKLAERFQNICAVGDADQSIYRWRGADIQNILSFERDYPNAKVILLEQNYRSTKRILQAANEVIEHNVNRKPKRIWTENPEGKPILYYEAMNEADEAQFVAGRIREAVERGERRYRDFAVLYRTNAQSRVMEEMLLKANIPYQIVGGLKFYDRKEIKDILAYLRVIANPDDDLSLLRIINVPKRGIGASTIDKLVRYAADHELSLFEALGELEMIGLGAKAAGALAAFRSQLEQWTQLQEYVSVTELVEEVLDKSGYREMLKAERTIEAQSRLENLDEFLSVTKHFENVSDDKSLIAFLTDLALISDLDELDGTEQAAEGDAVMLMTLHAAKGLEFPVVFLIGMEEGIFPHNRSLEDDDEMEEERRLAYVGITRAEEELVLTSAQMRTLFGNIQMDPPSRFLNEIPAHLLETASRRQAGASRPAVSRPQASGAVGSWKVGDRANHRKWGIGTVVSVRGGGDDQELDIAFPSPIGIKRLLAKFAPIEKV | soluble
MSPSESGELSIIQELSQRIVEAQRQIRILDSIKWDESVKQEFFKFKGKKLPSIDKAYYDGKPLPFKVKDKQEEFRIILRDAQNQLGQYSTVTRLIRRQCEEYSRAAQMLSLRGTPSFSEMAMELYGSPDDVFYVGGPRMCEMGSLLFDVLKSLQVQLQSQADIKRYTPIQAQEILQERLGKFFDKHPGRVSVMVSDDMIADASAGADSIKLSQNAMFSDRDLRYLEVHEGWVHVGTTLNGALQPNCFFLSKGSPSSSVIQEGLAVITEVVTFSSYPGRMLKITNRVIALDKVTQGADFIDIYRYFLECGLSEEDSYNQSVRIFRGSTPTGGPFTKDLSYAKGFVLIYNYIRFAIGQKRVDTIPLLFTGKLVLDDLPLLGELKEREILTDPVYLPPPFQDLAALSAWMSFSLYLNQFDLNEIQKNFRFLLVLEHHHHHH | not soluble
MNKHTTLPNLMQKIVSDEDLQSIIEAVGYHDTSRTFTVRTLVDFFLLAALHEWKSFRHGADVAKMYGLPTFHYSTVSKKAKEVPYEVMKRLFALVVSKCNRQTRRSLRFPKALRVVDSTTVTVGKNRLAWAPYHGERSGVKMHVAYSPEQQMPSDIVETVGLRHDGPVGEQLTDAQSVLVEDRAYFKIERIARFVEQKPPFVFG | not soluble
MAAYRADDDYDFLYKVVLIGDSGVGKSNLLSRFTRNEFSLESKSTIGVEFATRSIHVDEKIVKAQIWDTAGQERYRAITSAYYRGAVGALLVYDVTRHVTFENVERWLKELRDHTEANIVIMLVGNKADLRHLRAVSTEDAKAFAERENTFFMETSALEALNVENAFTEVLSQIYRVASKKALDIGDDHTTLPKGQSINVGSKDDVSEVKKVGCCSS | soluble
MTDQPDLFGLAPDAPRPIIPANLPEDWQEALLPEFSAPYFHELTDFLRQERKEYTIYPPAPDVFNALRYTPLGEVKVLILGQDPYHGPNQAHGLSFSVRPGVRVPPSLRNIYKELTEDIPGFVAPKHGYLRSWAEQGVLLLNAVLTVRAGQANSHQGKGWEHFTDAVIKAVNAKEERVVFILWGSYARKKKKLITGKNHVVIESGHPSPLSEQYFFGTRPFSKTNEALEKAGRGPVEWQLPATVTEE | soluble

— the DeepSol protein solubility set
